Test results: the supplement of paper PMC9112550, “Optimization of the antimicrobial peptide Bac7 by deep mutational scanning” (BMC Biology, 2022)

These sequences were tested on Escherichia coli TOP10 (assay: shrunken log2 fold change of peptide-encoding DNA abundance (4.5 h post-induction vs induction); higher = less antimicrobial activity (less host growth inhibition)). Details: time post-induction: 4.5 h; library: site-saturation at positions 5, 18, 19, 20.
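Further: peptides expressed intracellularly from a pBAD plasmid library in pooled LB shake-flask culture, induced with 0.3% L-arabinose, DNA abundance read by NGS, three biological replicates, DESeq2 with apeglm shrinkage.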

Row | Sequence | shrunken log2 fold change
1 | RRIRFRPPRLPRPRPRPVIAPRP | -0.186
2 | RRIRRRPPRLPRPRPRPVRGPRP | 0.805
3 | RRIRIRPPRLPRPRPRPQLIPRP | -0.146
4 | RRIRMRPPRLPRPRPRPHYWPRP | -0.121
5 | RRIRSRPPRLPRPRPRPLPYPRP | -0.25
6 | RRIRERPPRLPRPRPRPVIHPRP | -0.106
7 | RRIRMRPPRLPRPRPRPPKMPRP | 0.477
8 | RRIRNRPPRLPRPRPRPHMYPRP | 0.0526
9 | RRIRPRPPRLPRPRPRPRCIPRP | -0.2
10 | RRIRKRPPRLPRPRPRPQFCPRP | 0.0712
11 | RRIRNRPPRLPRPRPRPSGSPRP | -0.0937
12 | RRIRWRPPRLPRPRPRPRQGPRP | 0.582
13 | RRIRKRPPRLPRPRPRPDWRPRP | 0.499
14 | RRIRWRPPRLPRPRPRPKQIPRP | 0.143
15 | RRIRFRPPRLPRPRPRPTVLPRP | -0.0624
16 | RRIRIRPPRLPRPRPRPDPIPRP | -0.0427
17 | RRIRNRPPRLPRPRPRPVIHPRP | -0.0797
18 | RRIRSRPPRLPRPRPRPPWEPRP | 0.198
19 | RRIRNRPPRLPRPRPRPGMTPRP | -0.257
20 | RRIRFRPPRLPRPRPRPRSTPRP | 0.421
21 | RRIRFRPPRLPRPRPRPYQKPRP | -1.08
22 | RRIRPRPPRLPRPRPRPLIAPRP | 0.113
23 | RRIRMRPPRLPRPRPRPSVSPRP | -0.35
24 | RRIRARPPRLPRPRPRPRWCPRP | 0.0438
25 | RRIRFRPPRLPRPRPRPTIPPRP | -0.562

Row | Sequence | shrunken log2 fold change
26 | RRIRGRPPRLPRPRPRPTCAPRP | 1.11
27 | RRIRCRPPRLPRPRPRPMICPRP | -0.0738
28 | RRIRHRPPRLPRPRPRPSWKPRP | -0.0518
29 | RRIRCRPPRLPRPRPRPEGPPRP | 0.261
30 | RRIRKRPPRLPRPRPRPPLHPRP | 0.694
31 | RRIRPRPPRLPRPRPRPDMEPRP | -0.0437
32 | RRIRNRPPRLPRPRPRPACRPRP | 0.4
33 | RRIRHRPPRLPRPRPRPDMLPRP | -0.481
34 | RRIRARPPRLPRPRPRPAISPRP | 0.594
35 | RRIRERPPRLPRPRPRPMMAPRP | -0.128
36 | RRIRGRPPRLPRPRPRPQAYPRP | -0.0978
37 | RRIRRRPPRLPRPRPRPMNAPRP | 0.15
38 | RRIRVRPPRLPRPRPRPDTVPRP | -0.186
39 | RRIRPRPPRLPRPRPRPLQAPRP | 0.496
40 | RRIRLRPPRLPRPRPRPDTLPRP | -0.15
41 | RRIRVRPPRLPRPRPRPVWSPRP | 0.754
42 | RRIRKRPPRLPRPRPRPMSEPRP | 0.148
43 | RRIRGRPPRLPRPRPRPTTKPRP | 1
44 | RRIRGRPPRLPRPRPRPHQPPRP | 0.18
45 | RRIRGRPPRLPRPRPRPEIVPRP | 0.0103
46 | RRIRHRPPRLPRPRPRPRKTPRP | 0.00946
47 | RRIRERPPRLPRPRPRPPNLPRP | 0.0423
48 | RRIRKRPPRLPRPRPRPAPVPRP | 0.668
49 | RRIRSRPPRLPRPRPRPAHIPRP | -0.0188
50 | RRIRYRPPRLPRPRPRPPPKPRP | 1.24

Row | Sequence | shrunken log2 fold change
51 | RRIRTRPPRLPRPRPRPGYRPRP | -0.0981
52 | RRIRVRPPRLPRPRPRPDWWPRP | -0.0161
53 | RRIRRRPPRLPRPRPRPRQYPRP | -0.191
54 | RRIRARPPRLPRPRPRPHFSPRP | 0.0805
55 | RRIRSRPPRLPRPRPRPYHVPRP | -1.09
56 | RRIRMRPPRLPRPRPRPYFTPRP | -0.362
57 | RRIRWRPPRLPRPRPRPHVDPRP | -0.127
58 | RRIRTRPPRLPRPRPRPGMVPRP | 0.279
59 | RRIRCRPPRLPRPRPRPAHEPRP | 0.238
60 | RRIRRRPPRLPRPRPRPTCPPRP | 0.415
61 | RRIRGRPPRLPRPRPRPKKEPRP | 0.042
62 | RRIRARPPRLPRPRPRPNIPPRP | -0.223
63 | RRIRSRPPRLPRPRPRPVFAPRP | 0.218
64 | RRIRYRPPRLPRPRPRPFWHPRP | -0.556
65 | RRIRCRPPRLPRPRPRPYDWPRP | -0.204
66 | RRIRSRPPRLPRPRPRPWNPPRP | -0.00281
67 | RRIRRRPPRLPRPRPRPGGEPRP | 0.356
68 | RRIRWRPPRLPRPRPRPVEPPRP | 0.546
69 | RRIRPRPPRLPRPRPRPCYPPRP | -0.301
70 | RRIRRRPPRLPRPRPRPLRRPRP | 0.654
71 | RRIRRRPPRLPRPRPRPQGMPRP | 0.133
72 | RRIRPRPPRLPRPRPRPSAKPRP | 0.528
73 | RRIRDRPPRLPRPRPRPDILPRP | 0.111
74 | RRIRARPPRLPRPRPRPFPNPRP | -0.221
75 | RRIRRRPPRLPRPRPRPFFHPRP | 0.154

Row | Sequence | shrunken log2 fold change
76 | RRIRRRPPRLPRPRPRPDSPPRP | 0.28
77 | RRIRTRPPRLPRPRPRPKLPPRP | 0.214
78 | RRIRMRPPRLPRPRPRPMPPPRP | 1.07
79 | RRIRDRPPRLPRPRPRPRWCPRP | 0.33
80 | RRIRTRPPRLPRPRPRPSCFPRP | -0.0671
81 | RRIRLRPPRLPRPRPRPKEVPRP | -0.147
82 | RRIRNRPPRLPRPRPRPSAFPRP | -0.249
83 | RRIRQRPPRLPRPRPRPAFMPRP | -0.0902
84 | RRIRLRPPRLPRPRPRPHMRPRP | 0.125
85 | RRIRHRPPRLPRPRPRPVWHPRP | 0.0453
86 | RRIRIRPPRLPRPRPRPEPCPRP | -0.057
87 | RRIRERPPRLPRPRPRPIHLPRP | -0.0986
88 | RRIRGRPPRLPRPRPRPYYRPRP | -0.0655
89 | RRIRSRPPRLPRPRPRPIDAPRP | -0.101
90 | RRIRIRPPRLPRPRPRPRERPRP | 0.688
91 | RRIRIRPPRLPRPRPRPRNAPRP | 0.0687
92 | RRIRERPPRLPRPRPRPQDSPRP | -0.222
93 | RRIRTRPPRLPRPRPRPVMKPRP | 0.00771
94 | RRIRYRPPRLPRPRPRPLGLPRP | -0.126
95 | RRIRTRPPRLPRPRPRPWAEPRP | -0.0837
96 | RRIRSRPPRLPRPRPRPYMRPRP | -0.0496
97 | RRIRHRPPRLPRPRPRPQCEPRP | -0.122
98 | RRIRIRPPRLPRPRPRPPFSPRP | -0.245
99 | RRIRMRPPRLPRPRPRPKSYPRP | 0.0526
100 | RRIRMRPPRLPRPRPRPMGSPRP | -0.0199

Row | Sequence | shrunken log2 fold change
101 | RRIRDRPPRLPRPRPRPIAPPRP | 0.0634
102 | RRIRFRPPRLPRPRPRPHDWPRP | 0.0906
103 | RRIRHRPPRLPRPRPRPCLCPRP | -0.268
104 | RRIRYRPPRLPRPRPRPDWTPRP | 0.0173
105 | RRIRTRPPRLPRPRPRPSFCPRP | -0.296
106 | RRIRKRPPRLPRPRPRPNFFPRP | 0.0314
107 | RRIRIRPPRLPRPRPRPEHCPRP | 0.0755
108 | RRIRERPPRLPRPRPRPIPYPRP | -0.00829
109 | RRIRRRPPRLPRPRPRPGFMPRP | 0.252
110 | RRIRNRPPRLPRPRPRPFMRPRP | 0.269
111 | RRIRWRPPRLPRPRPRPGDQPRP | 0.175
112 | RRIRVRPPRLPRPRPRPYAQPRP | 0.0393
113 | RRIRLRPPRLPRPRPRPTDNPRP | -0.391
114 | RRIRGRPPRLPRPRPRPCNPPRP | -0.266
115 | RRIRWRPPRLPRPRPRPEMGPRP | 0.271
116 | RRIRSRPPRLPRPRPRPYRMPRP | -0.0162
117 | RRIRTRPPRLPRPRPRPTLAPRP | 0.54
118 | RRIRHRPPRLPRPRPRPAPYPRP | 0.296
119 | RRIRERPPRLPRPRPRPVMIPRP | -0.22
120 | RRIRGRPPRLPRPRPRPKCNPRP | 0.541
121 | RRIRARPPRLPRPRPRPCEDPRP | 0.693
122 | RRIRNRPPRLPRPRPRPEQTPRP | 0.235
123 | RRIRDRPPRLPRPRPRPNNGPRP | -0.0483
124 | RRIRYRPPRLPRPRPRPPIAPRP | 0.00572
125 | RRIRFRPPRLPRPRPRPMAEPRP | 0.0579

Row | Sequence | shrunken log2 fold change
126 | RRIRFRPPRLPRPRPRPHCPPRP | -0.629
127 | RRIRYRPPRLPRPRPRPPHEPRP | -0.125
128 | RRIRDRPPRLPRPRPRPPEKPRP | 0.106
129 | RRIRLRPPRLPRPRPRPAFFPRP | 0.406
130 | RRIRWRPPRLPRPRPRPYTYPRP | -0.329
131 | RRIRLRPPRLPRPRPRPPQDPRP | 0.348
132 | RRIRYRPPRLPRPRPRPAKQPRP | -0.168
133 | RRIRWRPPRLPRPRPRPHEYPRP | -0.147
134 | RRIRWRPPRLPRPRPRPYGIPRP | -0.00133
135 | RRIRNRPPRLPRPRPRPTLCPRP | 0.00464
136 | RRIRARPPRLPRPRPRPIADPRP | 0.394
137 | RRIRKRPPRLPRPRPRPKLHPRP | 0.129
138 | RRIRVRPPRLPRPRPRPSSRPRP | -0.231
139 | RRIRARPPRLPRPRPRPKQYPRP | -0.0335
140 | RRIRDRPPRLPRPRPRPHNCPRP | 0.0686
141 | RRIRKRPPRLPRPRPRPMFRPRP | 0.0113
142 | RRIRIRPPRLPRPRPRPCKIPRP | -0.293
143 | RRIRNRPPRLPRPRPRPFRFPRP | -0.199
144 | RRIRSRPPRLPRPRPRPIWWPRP | 0.361
145 | RRIRIRPPRLPRPRPRPRIMPRP | -0.537
146 | RRIRGRPPRLPRPRPRPNEQPRP | -0.0722
147 | RRIRRRPPRLPRPRPRPNEQPRP | 0.324
148 | RRIRMRPPRLPRPRPRPRPPPRP | 1.55
149 | RRIRCRPPRLPRPRPRPHGMPRP | -0.114
150 | RRIRYRPPRLPRPRPRPVQNPRP | -0.0153
